From patent US8466107B2, “Fibrin-binding peptides and conjugates thereof” (Bracco Imaging SpA, priority 2006, dated 2013)
Bridge positions count the residues as written; N and C are the ends.

Target: T1, human clots (Homo sapiens, UniProt P02671+P02675+P02679)
T1 construct: Small plasma clots from different species (human, guinea pig and mouse); tissue Dade Behring; host or cells: pooled human plasma (Control Plasma N), clotted with Pathromtin SL and CaCl2
T1 sequence (P02671 36-629 limits assumed): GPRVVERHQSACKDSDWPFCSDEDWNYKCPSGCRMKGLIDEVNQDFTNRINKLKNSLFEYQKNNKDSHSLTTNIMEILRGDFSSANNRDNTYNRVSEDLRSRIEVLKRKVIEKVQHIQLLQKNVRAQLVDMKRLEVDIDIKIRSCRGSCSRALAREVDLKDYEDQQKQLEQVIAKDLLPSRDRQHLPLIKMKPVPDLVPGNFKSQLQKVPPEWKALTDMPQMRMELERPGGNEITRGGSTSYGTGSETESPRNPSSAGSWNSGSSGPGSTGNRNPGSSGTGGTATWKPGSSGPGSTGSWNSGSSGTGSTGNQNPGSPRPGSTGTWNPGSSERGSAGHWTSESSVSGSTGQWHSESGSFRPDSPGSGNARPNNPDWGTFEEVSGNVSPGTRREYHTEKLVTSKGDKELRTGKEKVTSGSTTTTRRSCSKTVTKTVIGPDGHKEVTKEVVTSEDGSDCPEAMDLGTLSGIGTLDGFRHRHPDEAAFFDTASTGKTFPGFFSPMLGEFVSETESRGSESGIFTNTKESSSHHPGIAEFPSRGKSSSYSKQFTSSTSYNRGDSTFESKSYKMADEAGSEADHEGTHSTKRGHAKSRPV
T1 sequence (P02675 45-491 limits assumed): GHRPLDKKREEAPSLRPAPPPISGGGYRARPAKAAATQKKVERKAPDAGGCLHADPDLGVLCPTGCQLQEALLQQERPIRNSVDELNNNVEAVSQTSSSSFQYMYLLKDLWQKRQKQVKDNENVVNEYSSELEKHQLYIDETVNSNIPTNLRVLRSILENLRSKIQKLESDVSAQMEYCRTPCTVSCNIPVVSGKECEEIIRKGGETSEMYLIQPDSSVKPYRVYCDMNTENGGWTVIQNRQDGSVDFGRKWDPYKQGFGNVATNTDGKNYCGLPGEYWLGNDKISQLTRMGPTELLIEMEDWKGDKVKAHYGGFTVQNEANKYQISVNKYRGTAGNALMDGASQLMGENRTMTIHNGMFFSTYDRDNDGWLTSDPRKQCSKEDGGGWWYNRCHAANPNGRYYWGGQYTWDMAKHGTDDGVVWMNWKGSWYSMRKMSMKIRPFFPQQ
T1 sequence (P02679 27-437 isoform P02679-2 limits assumed): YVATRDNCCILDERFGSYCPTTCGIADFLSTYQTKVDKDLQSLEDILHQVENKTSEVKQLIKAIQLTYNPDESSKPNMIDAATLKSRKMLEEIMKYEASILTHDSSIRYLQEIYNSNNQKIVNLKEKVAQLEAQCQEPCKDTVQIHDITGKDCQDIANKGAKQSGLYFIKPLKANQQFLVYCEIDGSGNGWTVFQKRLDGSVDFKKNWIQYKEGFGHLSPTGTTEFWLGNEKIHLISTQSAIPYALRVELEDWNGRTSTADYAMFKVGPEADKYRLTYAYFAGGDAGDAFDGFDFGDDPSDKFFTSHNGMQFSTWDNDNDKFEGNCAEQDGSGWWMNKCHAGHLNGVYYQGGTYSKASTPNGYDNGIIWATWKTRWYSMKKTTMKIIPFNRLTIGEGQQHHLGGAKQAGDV
Assay: In vitro MRI test of signal enhancement in plasma clots incubated with contrast agents
Assay type: binding
Description: Small plasma clots from different species (human, guinea pig and mouse) ranging from 0.5-7 mm in diameter were formed by combining citrate plasma (1:3,v/v) phospholipids (Reagent Pathromtin) and CaCl2 0.008 M (Dade Behring, Germany) into small 2 ml vials at 37° C. Clots were washed 3 times with TBS 1× and incubated with contrast agents at 100 μM for 30 minutes at 37° C. Two clots were prepared for each solution of incubation. After the incubation clots were washed 4 times with TBS 1× and placed into small vials filled with TBS 1× for MRI analysis. T1-weighted 2D Spin-Echo (SE) images were acquired with the following parameters: TR/TE=400/8 ms, spatial resolution=344 μm and slice thickness=2 mm. Maximum signal intensity was measured in each image containing clot and compared to the signal from a clots incubated in TBS. […]
This protocol has been developed and used to test the specificity and efficiency of the fibrin targeted contrast agents of the invention for sensitive detection of thrombus by use of MRI. […] Signal enhancement from each sample incubated with the fibrin targeted contrast agent was evaluated and compared to a standard contrast agent ProHance®. […]
High resolution MRI was then performed by using T1-weighted Spin-Echo (SE) sequences. T1 maps were also calculated from the acquisition of 2D gradient echo images or inversion recovery spin echo images. […]

## Chelated Complex 1: Gd chelated complex (four DTPA-Glu units on branched lysine linker) conjugated to the fibrin-binding peptide; MRI contrast agent (Ac-WQPCPAESWTFCWDPGGGK-NH2; disulfide 4-12; not fully specified (some residues); also: further groups not given here)
Human clots incubated with 100 μM complex, 30 minutes at 37° C., T1-weighted spin-echo MRI at 2T
  Max signal Enhancement at 100 μM: 100%
Human clots, 100 μM concentration
  signal enhancement in clots, ranking of tested compounds: maximum signal enhancement
